{"source": "patent US9969998B2", "about": "“Compositions of adenosine deaminase-2 (ADA2), variants thereof and methods of using same” (Halozyme, Inc., priority 2014, dated 2018)", "key": {"[1]": {"details": "mouse, in vivo, iv, 3 mg/kg", "excerpt": "(§1) Twenty-seven (27) male BALB/c mice were divided into three (3) dosing groups, and were further divided into three (3) groups each for sampling of blood at different time points. Thus, the mice were randomized into nine (9) groups total. Mice were weighed prior to the start of the study, and randomized into the 9 groups based upon their body weights. In each sampling group, three groups of (3) mice were used for dosing each test article to prevent oversampling of the blood from the animals. For measurement of baseline ADA2 levels, a blood sample was obtained from 12 randomly chosen mice and plasma was prepared using the anti-coagulant potassium (K3) ethylene diamine tetraacetic acid (K3-EDTA). All blood was collected by submandibular venipuncture.\n(§2) PEGylated ADA2 variants were prepared using the PEGylation method as described in Example 8.A, with minor modifications. Briefly, all ADA2 variants at 10 mg/mL were PEGylated with linear PEG-20K (JenKem Technology, Plano, Tex.; Cat. No. M-SCM-20K) at 1:15 molar ratio and incubated first at 37° for 30 min, then at 4° C. for 16 hours.\n(§3) Approximately 200 μL of whole blood was collected at designated sampling time points from appropriate groups of mice as indicated below in Table 38 and kept on ice until plasma preparation. The initial two (2) blood samples were collected by submandibular venipuncture. The final sample was collected from a terminal bleed. Plasma was prepared by centrifuging the blood (500×g for 5 min at 4° C.), transferring the plasma to a fresh tube and immediately freezing at −80° C. until the adenosine deaminase activity assay. Adenosine deaminase activity was determined as described in Example 4.\n(§4) Non-compartmental analysis (NCA) was conducted using the Phoenix WinNonlin version 6.3 (Pharsight Corp, St. Louis, Mo. 63101). The half-life, or time taken for the activity of ADA2 proteins to be reduced by half, was calculated. Also, total exposure was measured by calculating the Area Under the Concentration-time Curve (AUC). The AUC and half-life values were obtained from the unweighted average from each test article group. The following options in the Phoenix WinNonlin program were used for data analysis: (i) linear trapezoidal/linear interpolation option for AUC; (ii) best-fit slope selection option for terminal slope; and (iii) uniform weighting of the data."}, "[2]": {"tested_on": "MH194+PSC4 pancreatic tumor", "experiment": "Tumor growth inhibition and survival, MH194+PSC4 syngeneic tumor model", "type": "in vivo, C57BL/6 mice", "details": "for Tumor Growth Inhibition: vs vehicle; for Increase in MST: vs vehicle (MST 27 days)", "protocol": "The murine MH194+PSC4 syngeneic tumor model was used to assess the antitumor efficacy of PEGylated a recombinant adenosine deaminase 2 (ADA2), PEGylated rHuADA2-R222Q/S265N (PEG-R222Q/S265N; PEG-R219Q/S262N by mature numbering).\nThe PSC4 cells are isolated and immortalized pancreatic stellate cells. To generate the PSC4 cells, pancreas from C57BL/6 mice were minced with razor blades and placed in 2 mL of a digestion buffer containing 0.05% collagenase P, 0.1% DNAse, and 0.02% Pronase in Gey's balanced salt solution (GBSS). Following two 15 min digestion incubations at 37° C. with thorough mixing after each incubation, the resulting cell suspension was filtered through a 100 μm nylon mesh, washed twice in GBSS with 0.3% bovine serum albumin (BSA), and resuspended in 10 mL GBSS/BSA. Eight mL of Histodenz (Sigma, Cat. No. D2158) was added to the cell suspension, and the entire volume was pipetted under 6 mL GBSS/BSA in order to generate a discontinuous density gradient. Following centrifugation for 20 min at 1,400 g with the brake set at zero, the desired cells were harvested from the interface between the two density volumes and washed once with PBS and once with DMEM medium supplemented with 2 mM L-glutamine, 10% fetal bovine serum, and 1% amphotericin-B (complete DMEM). Cells were immortalized using Lenti-SV40 (Capital Biosciences, Cat. No. CIP-0011) using manufacturer's protocol. The resulting cell line, designated PSC4, were maintained in tissue culture as an adherent monolayer in complete DMEM at 37° C. and 5% CO2. The MH194 mouse pancreatic carcinoma cells are derived from the KrasLSL.G12D/+p53R172H/+PdxCretg/+ genetically engineered mouse model. […]\nThirty-nine (39) male C57BL/6 mice were co-inoculated subcutaneously with 5×10^6 of a mixture of murine MH194 pancreatic cancer tumor cells and murine PSC4 pancreatic stellate cells in 0.1 mL injection volume per animal. Tumor volume was determined using digital calipers via measurement of length (L) and width (W) of the solid tumor masses. Tumor volume (TV) was calculated as: (L×W^2)/2. Tumors were allowed to grow and tumor bearing mice were staged for test article administration when the tumors were palpable and measured to be approximately 50-100 mm^3.\nPEG-R222Q/S265N was prepared using similar methods as described in Example 8.A, with minor modifications to generate a preparation in which approximately 100% of the molecules were PEGylated as assessed by SDS-PAGE.\nFor treatment, MH194+PSC4 tumor bearing mice were randomized into five treatment groups (n=≤8); vehicle control (buffer only) or PEG-R222Q/S265N at four treatment doses. MH194+PSC4 tumor bearing mice were then injected intravenously (IV) every other day, at 0.003 mg/kg body weight, 0.03 mg/kg body weight, 0.3 mg/kg body weight and 3 mg/kg body weight of PEG-R222Q/S265N, or vehicle. […] Median survival time (MST) (in days) was calculated as the time at which 50% of the mice of the individual groups reached one of the following endpoints: (1) tumor volume reaches 2000 mm^3, (2) the animal loses >25% of its body weight, or (3) the animal appears moribund."}, "[3]": {"experiment": "In vivo pharmacokinetics of PEGylated rHuADA2 combination variants (Example 14)", "details": "3 mg/kg intravenous", "excerpt": "as §1, §2, §3, §4"}, "[4]": {"experiment": "Heparin binding ELISA (immobilized heparin)", "details": "Example 8", "protocol": "Heparin binding of a protein, such as any ADA2 provided herein, can also be assessed using enzyme-linked immunosorbant assay (ELISA) based methods. ELISA-based methods use heparin immobilized on a surface, such as a microtiter plate. The protein of interest which binds to heparin, such as any ADA2 provided herein, is incubated in the heparin coated plate, and binding is detected using antibodies that detect the protein of interest, such as any ADA2 provided herein.\nFor example, a 96-well plate coated with 100 μL of 200 μg/mL heparin sodium salt (Calibochem, EMD Milipore, Billerica, Mass.; Cat. No. 375095) in Na2CO3 buffer (pH 9.6) can be used to test ADA2 binding to heparin. […] The optical density (OD) of each reaction is measured on a plate reader.\nIn another example, heparin is immobilized by incubating Streptavidin-coated microtiter plates, such as the Streptavidin-coated 96-well plate (Thermo Fisher Scientific, Rockford, Ill.; Cat. No. 15520), with biotinylated heparin, such as biotin-heparin (Sigma-Aldrich, St. Louis, Mo.; Cat No. B9806-10MG). […] The optical density (OD) of each reaction is measured on a plate reader. […]"}, "[5]": {"details": "0.003 mg/kg IV every other day, day 11"}, "[6]": {"details": "0.03 mg/kg IV every other day, day 11"}, "[7]": {"details": "0.3 mg/kg IV every other day, day 11"}, "[8]": {"details": "3 mg/kg IV every other day, day 11"}, "[9]": {"details": "day 11, 0.003 mg/kg IV every other day"}, "[10]": {"details": "male BALB/c mice, WT from Example 9"}}}
{"molecule": "PEG-R222Q/S265N: rHuADA2-R222Q/S265N (SEQ ID NO:273) PEGylated with linear PEG-20K (conjugate, linear PEG-20K; human ADA2 R219Q/S262N, mature numbering) IDETRAHLLLKEKMMRLGGRLVLNTKEELANERLMTLKIAEMKEAMRTLIFPPSMHFFQAKHLIERSQVFNILRMMPKGAALHLHDIGIVTMDWLVRNVTYRPHCHICFTPRGIMQFRFAHPTPRPSEKCSKWILLEDYRKRVQNVTEFDDSLLRNFTLVTQHPEVIYTNQNVVWSKFETIFFTISGLIHYAPVFRDYVFRSMQEFYEDNVLYMEIRAQLLPVYELSGEHHDEEWSVKTYQEVAQKFVETHPEFIGIKIIYNDHRSKDVAVIAESIRMAMGLRIKFPTVVAGFDLVGHEDTGHSLHDYKEALMIPAKDGVKLPYFFHAGETDWQGTSIDRNILDALMLNTTRIGHGFALSKHPAVRTYSWKKDIPIEVCPISNQVLKLVSDLRNHPVATLMATGHPMVISSDDPAMFGAKGLSYDFYEVFMGIGGMKADLRTLKQLAMNSIKYSTLLESEKNTFMEIWKKRWDKFIADVATK", "values": [{"measurement": "Half-life slow (t1/2)", "setting": "[1]", "result": "2,790 min"}, {"measurement": "Percent increase in t1/2 compared to WT ADA2", "setting": "[1]", "result": "4,043%"}, {"measurement": "MST (median survival time)", "setting": "[2]; 0.003 mg/kg IV every other day", "result": 46, "unit": "days"}, {"measurement": "Average Tumor Volume", "setting": "[2]; [5]", "result": 323.9, "unit": "mm^3"}, {"measurement": "Tumor Growth Inhibition", "setting": "[2]; [5]", "result": 72, "unit": "%"}, {"measurement": "Increase in MST", "setting": "[2]; 0.003 mg/kg IV every other day", "result": 70, "unit": "%"}, {"measurement": "median survival time (MST)", "setting": "[2]; 0.003 mg/kg dose", "result": 46, "unit": "days"}, {"measurement": "mice that survived beyond 41 days", "setting": "[2]; 0.003 mg/kg dose", "result": "Five out of eight"}, {"measurement": "MST (median survival time)", "setting": "[2]; 0.03 mg/kg IV every other day", "result": 26, "unit": "days"}, {"measurement": "Average Tumor Volume", "setting": "[2]; [6]", "result": 680.45, "unit": "mm^3"}, {"measurement": "Tumor Growth Inhibition", "setting": "[2]; [6]", "result": 21, "unit": "%"}, {"measurement": "Increase in MST", "setting": "[2]; 0.03 mg/kg IV every other day", "result": 0, "unit": "%"}, {"measurement": "MST (median survival time)", "setting": "[2]; 0.3 mg/kg IV every other day", "result": 32.5, "unit": "days"}, {"measurement": "Survival time", "setting": "[2]; 0.3 mg/kg IV every other day", "result": "13 to 41", "unit": "days"}, {"measurement": "Average Tumor Volume", "setting": "[2]; [7]", "result": 700.59, "unit": "mm^3"}, {"measurement": "Tumor Growth Inhibition", "setting": "[2]; [7]", "result": 20, "unit": "%"}, {"measurement": "Increase in MST", "setting": "[2]; 0.3 mg/kg IV every other day", "result": 20, "unit": "%"}, {"measurement": "MST (median survival time)", "setting": "[2]; 3 mg/kg IV every other day", "result": 23.5, "unit": "days"}, {"measurement": "Average Tumor Volume", "setting": "[2]; [8]", "result": 678.58, "unit": "mm^3"}, {"measurement": "Tumor Growth Inhibition", "setting": "[2]; [8]", "result": 22, "unit": "%"}, {"measurement": "Increase in MST", "setting": "[2]; 3 mg/kg IV every other day", "result": 0, "unit": "%"}, {"measurement": "Average Tumor Volume", "setting": "[2]; [9]", "result": "approximately 324 mm^3"}, {"measurement": "tumor growth inhibition (TGI)", "setting": "[2]; [9]", "result": "approximately 72%"}, {"measurement": "AUC (total exposure)", "setting": "[3]; BALB/c mice, plasma ADA activity", "result": "16,330 (U * h)/mL"}, {"measurement": "Percent increase in AUC compared to WT ADA2", "setting": "[3]; BALB/c mice, vs non-PEGylated WT rHuADA2 of Example 9", "result": "49,661%"}, {"measurement": "AUC higher than the non-PEGylated WT rHuADA2", "setting": "[3]; [10]", "result": 49661, "unit": "%"}, {"measurement": "half-life longer than the non-PEGylated WT rHuADA2", "setting": "[3]; [10]", "result": 4043, "unit": "%"}]}
{"molecule": "PEGylated ADA2: ADA2 conjugate that is a PEGylated ADA2 (conjugate, UniProt Q9NZK5 30-511, looked up, PEG) Adenosine deaminase 2: IDETRAHLLLKEKMMRLGGRLVLNTKEELANERLMTLKIAEMKEAMRTLIFPPSMHFFQAKHLIERSQVFNILRMMPKGAALHLHDIGIVTMDWLVRNVTYRPHCHICFTPRGIMQFRFAHPTPRPSEKCSKWILLEDYRKRVQNVTEFDDSLLRNFTLVTQHPEVIYTNQNVVWSKFETIFFTISGLIHYAPVFRDYVFRSMQEFYEDNVLYMEIRARLLPVYELSGEHHDEEWSVKTYQEVAQKFVETHPEFIGIKIIYSDHRSKDVAVIAESIRMAMGLRIKFPTVVAGFDLVGHEDTGHSLHDYKEALMIPAKDGVKLPYFFHAGETDWQGTSIDRNILDALMLNTTRIGHGFALSKHPAVRTYSWKKDIPIEVCPISNQVLKLVSDLRNHPVATLMATGHPMVISSDDPAMFGAKGLSYDFYEVFMGIGGMKADLRTLKQLAMNSIKYSTLLESEKNTFMEIWKKRWDKFIADVATK", "values": [{"measurement": "heparin binding compared to the corresponding non-PEGylated ADA2", "setting": "[4]", "result": "reduced heparin binding"}]}
